{"source": "patent US20250302974A1", "about": "“LECTIN-DRUG CONJUGATES” (UNICHEM LABORATORIES LIMITED, priority 2021, published 2025)", "key": {"[1]": {"assay": "Glycan binding study, N-Glycan array containing 100 glycans"}, "[2]": {"assay": "Glycan binding study, O-Glycan array containing 94 glycans", "settings": "T-antigen and its extended core structures"}, "[3]": {"tested_on": "bladder cancer cells (T24)", "assay": "Colocalization study in cell organelles, confocal microscopy, FITC-tagged lectin", "type": "cell-based", "settings": "100 μg/mL FITC-labelled, 2 h", "procedure": "Study was performed to analyze the localization of SEQ ID NO 2 (test item) in cell organelles using Confocal microscopy.\nTest Item provided as aqueous solution was tagged with FITC label at Bioklone Biotech Pvt Ltd. Resultant concentration of FITC tagged test Item was 1 mg/mL.\nThe stock solution of Test Item was diluted in Serum Free Medium (SFM) at single concentration—100 μg/mL.\nCells were plated on a glass coverslip at a density of 0.1×10^6 cells per well.\nFollowing the incubation cells were washed with PBS (3 washes) and fixed using 4% paraformaldehyde for 10 min at RT. After fixation, cells were permeabilized using 0.5% IGEPAL for 10 min at RT (Permeabilization was not done for cells that were stained with Pan-Cadherin). Post permeabilization, cells were blocked using 5% normal goat serum for 1 hour at RT. Post blocking, cells were treated with organelle specific markers for 1.5 hours at RT followed by secondary antibody for 2 hours at RT.\nFollowing antibodies were used for different organelles:\nPost incubation, cells were washed using PBST (3 washes) and PBS (3 washes) and stained with DAPI (nucleus stain) for 3 min at RT.\nCells were washed (3 washes) and mounted on a glass slide using Prolong Glass antifade mountant. Imaging was done using Confocal fluorescence microscope (Make: Olympus FV1000) at AIRF, JNU. Images were captured using software FluoView. […]"}, "PBMC Normal": {"tested_on": "PBMC Normal", "assay": "Cytotoxic effect by MTT assay, 48 h", "settings": "for Percent cytotoxicity wrt control: PBMC, 48 h", "procedure": "(§1) Cells were treated with Test Items at various concentrations (0.0001 μM-10 μM) for 48 h. The cells corresponding to Positive Control group were treated with Doxorubicin at a concentration ranging from 0.1 μM-100 μM. The Untreated cells were used as Control. After 48 h of incubation, the effect of Test Items on cytotoxicity of cells was determined by MTT assay, the plates were taken out and 20 μl of 5 mg/m1 of MTT 3-(4,5-dimethythiazol-2-yl)-2,5-diphenyl tetrazolium bromide solution was added to all the wells. Cells were incubated for 3 h at 37° C. The supernatant was aspirated. 150 μl of DMSO was added to each well to dissolve formazan crystals. The absorbance of each well was then read at 540 nm using Synergy HT micro plate reader.\n(§2) The % Cytotoxicity was calculated using the formula:\n(§3) Where, X=Absorbance of cells treated with Test Item; R=Absorbance of Control cells (Untreated cells maintained in growth medium only)."}, "[4]": {"tested_on": "ovarian cancer cell line (PA-1)", "assay": "Cytotoxicity assay, cell titer glow luminescence, 72 h", "type": "cell-based", "procedure": "(§4) T-24 Cell line were cultured in McCoy's 5a Medium Modified supplemented with 10% FBS and the PA-1 Cell line was cultured in EMEM Media supplemented with 10% FBS. The assay was performed by plating 5,000 cells/well and incubated at 37° C. overnight. […] Each concentration was added in triplicate and media-only wells used as a control. After incubation for 72 h cell titer glow (Promega) reagent (50 μL) was added to each well and the plates shaken for 5 mins and the luminescence was recorded. Percent viability was determined by dividing luminescence of the treated well by the non-treated well and multiplying by 100. Data was analysed using non-linear regression with a logarithmic scale.\n(§5) 5,000 cells/well were plated and incubated at 37° C. overnight. Conjugates/vehicle control dilutions were made in respective media and added to cells. Volume added: 50 uL to each well. Starting treatment concentration was 1 uM for Conjugate of formula 16 and 18, and control SEQ ID NO: 5 alone and 10% for vehicle control (1×PBS with 20% DMA) and then diluted 10-fold down for a total of 11 treatment dilutions. Each concentration was analysed in triplicates. Media-only wells was used as a control to calculate percent viability. Cell titer glow reagent (volume: 50 uL) was added to each well, the plate was shaken for 5 mins and the luminescence was recorded. Drug Treatment Time: 72 hours. Percent viability was calculated by dividing the luminescence signal obtained for each treated well by the untreated well (media-only control) and multiplying by 100."}, "[5]": {"tested_on": "human urinary bladder cancer cell line (T-24)", "assay": "Cytotoxicity assay, cell titer glow luminescence, 72 h", "type": "cell-based", "procedure": "as §4, §5"}, "KB Cervix": {"tested_on": "KB Cervix", "assay": "Cytotoxic effect by MTT assay, 48 h", "settings": "for Percent cytotoxicity wrt control: KB, 48 h", "procedure": "as §1, §2, §3\n(§6) Selectivity Index was calculated using the formula:\n(§7) SI=IC50 in Normal cell/IC50 in cancer cell.\n(§8) Activity scores of the Selective Index values were categorized as: • Not selective (SI value ≤1) • Moderately selective (1<SI value <5) • Selective (SI value ≥5)"}, "U251 MG Brain": {"tested_on": "U251 MG Brain", "assay": "Cytotoxic effect by MTT assay, 48 h", "settings": "for Percent cytotoxicity wrt control: U251 MG, 48 h", "procedure": "as §1, §2, §3, §6, §7, §8"}, "PANC-1 Pancreatic": {"tested_on": "PANC-1 Pancreatic", "assay": "Cytotoxic effect by MTT assay, 48 h", "settings": "for Percent cytotoxicity wrt control: 48 h", "procedure": "as §1, §2, §3, §6, §7, §8"}, "A549 Lungs": {"tested_on": "A549 Lungs", "assay": "Cytotoxic effect by MTT assay, 48 h", "settings": "for Percent cytotoxicity wrt control: 48 h", "procedure": "as §1, §2, §3, §6, §7, §8"}}, "data": [{"molecule": "SEQ ID NO: 2: recombinant variant of the S. rolfsii lectin amino acid sequence (reported as Rec-2 in WO2010/095143) (protein) TYKITVRVYQTNPDAFFHPVEKTVWKYANGGTWTITDDQHVLTMGGSGTSGTLRFHADNGESFTATFGVHNYKRWCDIVTNLAADETGMVINQQYYSQKNREEARERQLSNYQVKNAKGRNFQIVYTEAEGNDLHANLIIG", "values": [{"measurement": "binding to N-glycans (in words)", "setting": "[1]", "value": "specific binding"}, {"measurement": "binding profile to O-glycans (in words)", "setting": "[2]", "value": "strong and broad binding profile"}, {"measurement": "colocalization in cell organelles", "setting": "[3]", "value": "colocalized in Mitochondria, Endoplasmic reticulum, Golgi bodies and Plasma membrane"}, {"measurement": "localization in the nuclear envelope", "setting": "[3]", "value": "no localization was observed"}, {"measurement": "Percent cytotoxicity wrt control", "setting": "PBMC Normal; 0.0001 μM", "value": "−7.4", "unit": "%"}, {"measurement": "Percent cytotoxicity wrt control", "setting": "PBMC Normal; 0.001 μM", "value": 19.9, "unit": "%"}, {"measurement": "Percent cytotoxicity wrt control", "setting": "PBMC Normal; 0.01 μM", "value": 24, "unit": "%"}, {"measurement": "Percent cytotoxicity wrt control", "setting": "PBMC Normal; 0.1 μM", "value": 44.9, "unit": "%"}, {"measurement": "Percent cytotoxicity wrt control", "setting": "PBMC Normal; 1 μM", "value": 49.5, "unit": "%"}, {"measurement": "Percent cytotoxicity wrt control", "setting": "PBMC Normal; 10 μM", "value": 43.4, "unit": "%"}, {"measurement": "IC50", "setting": "PBMC Normal; read-out: IC50 Values, PBMC Normal, after 48 h of treatment", "value": "> 10", "unit": "µM"}, {"measurement": "IC50 values, PA-1 Cell line", "setting": "[4]; 72 h", "value": 20.3, "unit": "µg/mL"}, {"measurement": "cytotoxic effects below 10 μM concentration", "setting": "[4]; below 10 μM", "value": "does not exhibit major cytotoxic effects"}, {"measurement": "IC50 values, T-24 cell line", "setting": "[5]; 72 h", "value": 10.4, "unit": "µg/mL"}, {"measurement": "cytotoxic effects below 10 μM concentration", "setting": "[5]; below 10 μM", "value": "does not exhibit major cytotoxic effects"}, {"measurement": "Percent cytotoxicity wrt control", "setting": "KB Cervix; 0.0001 μM", "value": "−1.5", "unit": "%"}, {"measurement": "Percent cytotoxicity wrt control", "setting": "KB Cervix; 0.001 μM", "value": "−2.6", "unit": "%"}, {"measurement": "Percent cytotoxicity wrt control", "setting": "KB Cervix; 0.01 μM", "value": "−3.9", "unit": "%"}, {"measurement": "Percent cytotoxicity wrt control", "setting": "KB Cervix; 0.1 μM", "value": 20.4, "unit": "%"}, {"measurement": "Percent cytotoxicity wrt control", "setting": "KB Cervix; 1 μM", "value": 51.2, "unit": "%"}, {"measurement": "Percent cytotoxicity wrt control", "setting": "KB Cervix; 10 μM", "value": 54.9, "unit": "%"}, {"measurement": "IC50", "setting": "KB Cervix; read-out: IC50 Values, KB Cervix, after 48 h of treatment", "value": 880, "unit": "nM"}, {"measurement": "Percent cytotoxicity wrt control", "setting": "U251 MG Brain; 0.0001 μM", "value": "−9.9", "unit": "%"}, {"measurement": "Percent cytotoxicity wrt control", "setting": "U251 MG Brain; 0.001 μM", "value": "−13.2", "unit": "%"}, {"measurement": "Percent cytotoxicity wrt control", "setting": "U251 MG Brain; 0.01 μM", "value": "−14.5", "unit": "%"}, {"measurement": "Percent cytotoxicity wrt control", "setting": "U251 MG Brain; 0.1 μM", "value": "−5.3", "unit": "%"}, {"measurement": "Percent cytotoxicity wrt control", "setting": "U251 MG Brain; 1 μM", "value": 15.9, "unit": "%"}, {"measurement": "Percent cytotoxicity wrt control", "setting": "U251 MG Brain; 10 μM", "value": 62.5, "unit": "%"}, {"measurement": "IC50", "setting": "U251 MG Brain; read-out: IC50 Values, U251 MG Brain, after 48 h of treatment", "value": 5.95, "unit": "µM"}, {"measurement": "Percent cytotoxicity wrt control", "setting": "PANC-1 Pancreatic; PANC-1, 0.0001 μM", "value": 9.5, "unit": "%"}, {"measurement": "Percent cytotoxicity wrt control", "setting": "PANC-1 Pancreatic; PANC-1, 0.001 μM", "value": 17, "unit": "%"}, {"measurement": "Percent cytotoxicity wrt control", "setting": "PANC-1 Pancreatic; PANC-1, 0.01 μM", "value": 20.5, "unit": "%"}, {"measurement": "Percent cytotoxicity wrt control", "setting": "PANC-1 Pancreatic; PANC-1, 0.1 μM", "value": 22.5, "unit": "%"}, {"measurement": "Percent cytotoxicity wrt control", "setting": "PANC-1 Pancreatic; PANC-1, 1 μM", "value": 34.4, "unit": "%"}, {"measurement": "Percent cytotoxicity wrt control", "setting": "PANC-1 Pancreatic; PANC-1, 10 μM", "value": 36.4, "unit": "%"}, {"measurement": "IC50", "setting": "PANC-1 Pancreatic; read-out: IC50 Values, PANC-1 Pancreatic, after 48 h of treatment", "value": "> 10", "unit": "µM"}, {"measurement": "Percent cytotoxicity wrt control", "setting": "A549 Lungs; A549, 0.0001 μM", "value": "−0.5", "unit": "%"}, {"measurement": "Percent cytotoxicity wrt control", "setting": "A549 Lungs; A549, 0.001 μM", "value": "−15.5", "unit": "%"}, {"measurement": "Percent cytotoxicity wrt control", "setting": "A549 Lungs; A549, 0.01 μM", "value": "−1.1", "unit": "%"}, {"measurement": "Percent cytotoxicity wrt control", "setting": "A549 Lungs; A549, 0.1 μM", "value": "−6.9", "unit": "%"}, {"measurement": "Percent cytotoxicity wrt control", "setting": "A549 Lungs; A549, 1 μM", "value": 31.9, "unit": "%"}, {"measurement": "Percent cytotoxicity wrt control", "setting": "A549 Lungs; A549, 10 μM", "value": 48.2, "unit": "%"}, {"measurement": "IC50", "setting": "A549 Lungs; read-out: IC50 Values, A549 Lungs, after 48 h of treatment", "value": "≥ 10", "unit": "µM"}]}]}
